Reference: paper PMC9253678, “Computer-Aided Design of α-L-Rhamnosidase to Increase the Synthesis Efficiency of Icariside I” (Frontiers in Bioengineering and Biotechnology, 2022)

Substrate: COc1ccc(-c2oc3c(CC=C(C)C)c(O[C@@H]4O[C@H](CO)[C@@H](O)[C@H](O)[C@H]4O)cc(O)c3c(=O)c2O[C@@H]2O[C@@H](C)[C@H](O)[C@@H](O)[C@H]2O)cc1
Assay: HPLC of icariside I formation, Michaelis-Menten nonlinear fit
Format: biochemical, Thermotoga petrophila
From the text: HPLC of icariside I formation, Michaelis-Menten nonlinear fit on […]

[1] = optimal conditions of the mutant: 85°C, pH 4.6, icariin 0.1–4 mg/ml
[2] = optimal conditions of the mutant: 85°C, pH 5.0, icariin 0.1–4 mg/ml
[3] = optimal conditions of the mutant: 80°C, pH 6.0, icariin 0.1–4 mg/ml
[4] = optimal conditions of the enzyme: 80°C, pH 5.0, disodium hydrogen phosphate-citrate buffer, icariin 0.1–4 mg/ml
[5] = optimal conditions of the mutant: 80°C, pH 5.0, icariin 0.1–4 mg/ml

B1: TpeRha (Thermotoga petrophila RKU-1; D506A/H570A/K579A) (protein)
chain: MIQACDLRCEYLTSPVLGLDVIPRFSWRLKGNGKKQTRYKIIVSDNFDDIERGIGNVWESEKDSSKNLNIEYEGPKLKAYKGYYWRVKLWDEKENGPWSETAYFEMGPLEDWRGKWITMPSPLSFKDPAHRHELFYAMYFRKEFLLNKEVEKARVYVSGLGVYELHLNGKRVGNNVLDPAPTDYNKVALYSTYDVTQYLTTGKNTIGVILGNGRHIRDYGYSKPKLYLQLLVFYKDGSREFICSDETWKVSHGPLKENGIYFGEVYDARDEISGWDSPGFDDRNWSEVEIVEGPSLKAQLIPVIRVCEVIKPKRLWLSSRGTFIVDFGKNISGWVKLRVNNGKRGEKIIIRYAEVLDPSMDRLDTRNLRLARATDEYILKGQGVEIYEPRFTYHGFRYVEVEDYPGTLTSDNIEAMFVHTDVEKVGDFACSSELLNKIHSCVVNSQLANLMGIPTDCPQRDERMGWLGDAQLTVEEAMYNFDMAAFYTKYLMDIKLSQKEDGSISAVAPPYWKRYPSDPAWGTAYATILWYLYFFYEDRRVLEEHYDSLKRYVEFLRKNSPNHLTKLGQAGDWCPPGDAFPKRTPLILTSTWYYYHDTLILSEIAKILGKKEDEHEYRKLAGEIKEAFNRHFLRKVEDHTGRIVCFYRGIKLSPKDRIPTTQTCNVLPLWNKMVPEECREDVFKVLERLIEVDNDTHFDTGIVGTRYILEVLSENGRKDLALKLLLKEDYPSFGYMIKNGATTLWERWEKLEGTGMNSHNHVMLGSVDTWFYKYLSGIKPVAPGWKKIRIEPYFADQIDFVSAKIKTPNGSLEVSWKKQNKEYEIQIIIPVNTVGIFAVPESFKVSAINSKQVSYPSEFELEPGAYNIVLERVREC
notes: codon-optimized synthetic gene in pET-28a, E. coli BL21(DE3), Ni-NTA purified (His tag of vector); model domains span 1-861
Km [1]: 1.11 ± 0.34 µM
Vmax [1]: 6.59 µM/min
kcat [1]: 0.000212 s⁻¹
kcat/Km [1]: 191 M⁻¹ s⁻¹

B2: TpeRha (Thermotoga petrophila RKU-1; D506A) (protein)
chain: MIQACDLRCEYLTSPVLGLDVIPRFSWRLKGNGKKQTRYKIIVSDNFDDIERGIGNVWESEKDSSKNLNIEYEGPKLKAYKGYYWRVKLWDEKENGPWSETAYFEMGPLEDWRGKWITMPSPLSFKDPAHRHELFYAMYFRKEFLLNKEVEKARVYVSGLGVYELHLNGKRVGNNVLDPAPTDYNKVALYSTYDVTQYLTTGKNTIGVILGNGRHIRDYGYSKPKLYLQLLVFYKDGSREFICSDETWKVSHGPLKENGIYFGEVYDARDEISGWDSPGFDDRNWSEVEIVEGPSLKAQLIPVIRVCEVIKPKRLWLSSRGTFIVDFGKNISGWVKLRVNNGKRGEKIIIRYAEVLDPSMDRLDTRNLRLARATDEYILKGQGVEIYEPRFTYHGFRYVEVEDYPGTLTSDNIEAMFVHTDVEKVGDFACSSELLNKIHSCVVNSQLANLMGIPTDCPQRDERMGWLGDAQLTVEEAMYNFDMAAFYTKYLMDIKLSQKEDGSISAVAPPYWKRYPSDPAWGTAYATILWYLYFFYEDRRVLEEHYDSLKRYVEFLRKNSPNHLTKLGQHGDWCPPGDKFPKRTPLILTSTWYYYHDTLILSEIAKILGKKEDEHEYRKLAGEIKEAFNRHFLRKVEDHTGRIVCFYRGIKLSPKDRIPTTQTCNVLPLWNKMVPEECREDVFKVLERLIEVDNDTHFDTGIVGTRYILEVLSENGRKDLALKLLLKEDYPSFGYMIKNGATTLWERWEKLEGTGMNSHNHVMLGSVDTWFYKYLSGIKPVAPGWKKIRIEPYFADQIDFVSAKIKTPNGSLEVSWKKQNKEYEIQIIIPVNTVGIFAVPESFKVSAINSKQVSYPSEFELEPGAYNIVLERVREC
notes: as for B1
Km [2]: 3.12 ± 0.26 µM
Vmax [2]: 1.91 µM/min
kcat [2]: 4.64e-05 s⁻¹
kcat/Km [2]: 14.9 M⁻¹ s⁻¹

B3: TpeRha (Thermotoga petrophila RKU-1; H570A) (protein)
chain: MIQACDLRCEYLTSPVLGLDVIPRFSWRLKGNGKKQTRYKIIVSDNFDDIERGIGNVWESEKDSSKNLNIEYEGPKLKAYKGYYWRVKLWDEKENGPWSETAYFEMGPLEDWRGKWITMPSPLSFKDPAHRHELFYAMYFRKEFLLNKEVEKARVYVSGLGVYELHLNGKRVGNNVLDPAPTDYNKVALYSTYDVTQYLTTGKNTIGVILGNGRHIRDYGYSKPKLYLQLLVFYKDGSREFICSDETWKVSHGPLKENGIYFGEVYDARDEISGWDSPGFDDRNWSEVEIVEGPSLKAQLIPVIRVCEVIKPKRLWLSSRGTFIVDFGKNISGWVKLRVNNGKRGEKIIIRYAEVLDPSMDRLDTRNLRLARATDEYILKGQGVEIYEPRFTYHGFRYVEVEDYPGTLTSDNIEAMFVHTDVEKVGDFACSSELLNKIHSCVVNSQLANLMGIPTDCPQRDERMGWLGDAQLTVEEAMYNFDMAAFYTKYLMDIKLSQKEDGSISDVAPPYWKRYPSDPAWGTAYATILWYLYFFYEDRRVLEEHYDSLKRYVEFLRKNSPNHLTKLGQAGDWCPPGDKFPKRTPLILTSTWYYYHDTLILSEIAKILGKKEDEHEYRKLAGEIKEAFNRHFLRKVEDHTGRIVCFYRGIKLSPKDRIPTTQTCNVLPLWNKMVPEECREDVFKVLERLIEVDNDTHFDTGIVGTRYILEVLSENGRKDLALKLLLKEDYPSFGYMIKNGATTLWERWEKLEGTGMNSHNHVMLGSVDTWFYKYLSGIKPVAPGWKKIRIEPYFADQIDFVSAKIKTPNGSLEVSWKKQNKEYEIQIIIPVNTVGIFAVPESFKVSAINSKQVSYPSEFELEPGAYNIVLERVREC
notes: as for B1
Km [3]: 0.92 ± 0.08 µM
Vmax [3]: 1.19 µM/min
kcat [3]: 3.64e-05 s⁻¹
kcat/Km [3]: 39.5 M⁻¹ s⁻¹

B4: TpeRha (Thermotoga petrophila RKU-1; D506A/H570A) (protein)
chain: MIQACDLRCEYLTSPVLGLDVIPRFSWRLKGNGKKQTRYKIIVSDNFDDIERGIGNVWESEKDSSKNLNIEYEGPKLKAYKGYYWRVKLWDEKENGPWSETAYFEMGPLEDWRGKWITMPSPLSFKDPAHRHELFYAMYFRKEFLLNKEVEKARVYVSGLGVYELHLNGKRVGNNVLDPAPTDYNKVALYSTYDVTQYLTTGKNTIGVILGNGRHIRDYGYSKPKLYLQLLVFYKDGSREFICSDETWKVSHGPLKENGIYFGEVYDARDEISGWDSPGFDDRNWSEVEIVEGPSLKAQLIPVIRVCEVIKPKRLWLSSRGTFIVDFGKNISGWVKLRVNNGKRGEKIIIRYAEVLDPSMDRLDTRNLRLARATDEYILKGQGVEIYEPRFTYHGFRYVEVEDYPGTLTSDNIEAMFVHTDVEKVGDFACSSELLNKIHSCVVNSQLANLMGIPTDCPQRDERMGWLGDAQLTVEEAMYNFDMAAFYTKYLMDIKLSQKEDGSISAVAPPYWKRYPSDPAWGTAYATILWYLYFFYEDRRVLEEHYDSLKRYVEFLRKNSPNHLTKLGQAGDWCPPGDKFPKRTPLILTSTWYYYHDTLILSEIAKILGKKEDEHEYRKLAGEIKEAFNRHFLRKVEDHTGRIVCFYRGIKLSPKDRIPTTQTCNVLPLWNKMVPEECREDVFKVLERLIEVDNDTHFDTGIVGTRYILEVLSENGRKDLALKLLLKEDYPSFGYMIKNGATTLWERWEKLEGTGMNSHNHVMLGSVDTWFYKYLSGIKPVAPGWKKIRIEPYFADQIDFVSAKIKTPNGSLEVSWKKQNKEYEIQIIIPVNTVGIFAVPESFKVSAINSKQVSYPSEFELEPGAYNIVLERVREC
notes: as for B1
Km [1]: 0.51 ± 0.13 µM
Vmax [1]: 2.5 µM/min
kcat [1]: 9.87e-05 s⁻¹
kcat/Km [1]: 194 M⁻¹ s⁻¹

B5: TpeRha (Thermotoga petrophila RKU-1) (protein)
chain: MIQACDLRCEYLTSPVLGLDVIPRFSWRLKGNGKKQTRYKIIVSDNFDDIERGIGNVWESEKDSSKNLNIEYEGPKLKAYKGYYWRVKLWDEKENGPWSETAYFEMGPLEDWRGKWITMPSPLSFKDPAHRHELFYAMYFRKEFLLNKEVEKARVYVSGLGVYELHLNGKRVGNNVLDPAPTDYNKVALYSTYDVTQYLTTGKNTIGVILGNGRHIRDYGYSKPKLYLQLLVFYKDGSREFICSDETWKVSHGPLKENGIYFGEVYDARDEISGWDSPGFDDRNWSEVEIVEGPSLKAQLIPVIRVCEVIKPKRLWLSSRGTFIVDFGKNISGWVKLRVNNGKRGEKIIIRYAEVLDPSMDRLDTRNLRLARATDEYILKGQGVEIYEPRFTYHGFRYVEVEDYPGTLTSDNIEAMFVHTDVEKVGDFACSSELLNKIHSCVVNSQLANLMGIPTDCPQRDERMGWLGDAQLTVEEAMYNFDMAAFYTKYLMDIKLSQKEDGSISDVAPPYWKRYPSDPAWGTAYATILWYLYFFYEDRRVLEEHYDSLKRYVEFLRKNSPNHLTKLGQHGDWCPPGDKFPKRTPLILTSTWYYYHDTLILSEIAKILGKKEDEHEYRKLAGEIKEAFNRHFLRKVEDHTGRIVCFYRGIKLSPKDRIPTTQTCNVLPLWNKMVPEECREDVFKVLERLIEVDNDTHFDTGIVGTRYILEVLSENGRKDLALKLLLKEDYPSFGYMIKNGATTLWERWEKLEGTGMNSHNHVMLGSVDTWFYKYLSGIKPVAPGWKKIRIEPYFADQIDFVSAKIKTPNGSLEVSWKKQNKEYEIQIIIPVNTVGIFAVPESFKVSAINSKQVSYPSEFELEPGAYNIVLERVREC
notes: as for B1
Km [4]: 4.33 ± 3.47 µM
Vmax [4]: 0.098 µM/min
kcat [4]: 4e-06 s⁻¹
kcat/Km [4]: 0.923 M⁻¹ s⁻¹

B6: TpeRha (Thermotoga petrophila RKU-1; K579A) (protein)
chain: MIQACDLRCEYLTSPVLGLDVIPRFSWRLKGNGKKQTRYKIIVSDNFDDIERGIGNVWESEKDSSKNLNIEYEGPKLKAYKGYYWRVKLWDEKENGPWSETAYFEMGPLEDWRGKWITMPSPLSFKDPAHRHELFYAMYFRKEFLLNKEVEKARVYVSGLGVYELHLNGKRVGNNVLDPAPTDYNKVALYSTYDVTQYLTTGKNTIGVILGNGRHIRDYGYSKPKLYLQLLVFYKDGSREFICSDETWKVSHGPLKENGIYFGEVYDARDEISGWDSPGFDDRNWSEVEIVEGPSLKAQLIPVIRVCEVIKPKRLWLSSRGTFIVDFGKNISGWVKLRVNNGKRGEKIIIRYAEVLDPSMDRLDTRNLRLARATDEYILKGQGVEIYEPRFTYHGFRYVEVEDYPGTLTSDNIEAMFVHTDVEKVGDFACSSELLNKIHSCVVNSQLANLMGIPTDCPQRDERMGWLGDAQLTVEEAMYNFDMAAFYTKYLMDIKLSQKEDGSISDVAPPYWKRYPSDPAWGTAYATILWYLYFFYEDRRVLEEHYDSLKRYVEFLRKNSPNHLTKLGQHGDWCPPGDAFPKRTPLILTSTWYYYHDTLILSEIAKILGKKEDEHEYRKLAGEIKEAFNRHFLRKVEDHTGRIVCFYRGIKLSPKDRIPTTQTCNVLPLWNKMVPEECREDVFKVLERLIEVDNDTHFDTGIVGTRYILEVLSENGRKDLALKLLLKEDYPSFGYMIKNGATTLWERWEKLEGTGMNSHNHVMLGSVDTWFYKYLSGIKPVAPGWKKIRIEPYFADQIDFVSAKIKTPNGSLEVSWKKQNKEYEIQIIIPVNTVGIFAVPESFKVSAINSKQVSYPSEFELEPGAYNIVLERVREC
notes: as for B1
Km [5]: 1.24 ± 0.09 µM
Vmax [5]: 1.97 µM/min
kcat [5]: 4.31e-05 s⁻¹
kcat/Km [5]: 34.7 M⁻¹ s⁻¹
